Experiment [1] deals with T1, recombinant human HER3 (human, UniProt P21860 20-643, limits assumed). The experiment is described as follows: SPR, BIAcore T200, antibody on chip, recombinant human antigen as analyte, steady state analysis. Background: Surface plasmon resonance follows binding to a sensor surface in real time, without labels.
Protocol: (§1) A direct binding assay was performed to characterize the binding of the engineered antibodies against their antigen. Kinetic binding affinity constants (KD) were measured on protein-A captured protein using recombinant human antigens as analyte. Measurements were conducted on a BIAcore® T200 (GE Healthcare, Glattbrugg, Switzerland) at room temperature. […] To serve as reference, one flow cell was blank immobilized. Binding data were acquired by subsequent injection of analyte dilutions series on the reference and measuring flow cell. Zero concentration samples (running buffer only) were included to allow double referencing during data evaluation. For data evaluation, doubled referenced sensograms were used and analyzed by steady state analysis to generate the equilibrium dissociation constant (KD).
The target in experiment [2] is T1, recombinant human HER3. The experiment is described as follows: SPR, BIAcore T200, antibody on chip, recombinant human antigen as analyte, steady state analysis; second value taken for antibody 2 arm (HER3); HER3 arm (Antibody 2), second value of the cell.
Protocol: as §1
Experiment [3] deals with recombinant human IL-17 (human, UniProt Q16552 24-155, limits assumed). Description: SPR, BIAcore T200, antibody on chip, recombinant human antigen as analyte, steady state analysis; first value taken for antibody 1 arm (IL-17); IL-17 arm (Antibody 1), first value of the cell.
Protocol: as §1
Experiment [4] deals with T2, recombinant human c-Kit (human, UniProt P10721 26-520, limits assumed). Description: SPR, BIAcore T200, antibody on chip, recombinant human antigen as analyte, steady state analysis; second value taken for antibody 2 arm (c-Kit); c-Kit arm (Antibody 2), second value of the cell.
Protocol: as §1
Experiment [5] deals with T2, recombinant human c-Kit. Description: SPR, BIAcore T200, antibody on chip, recombinant human antigen as analyte, steady state analysis; first value taken for antibody 1 arm (c-Kit); c-Kit arm (Antibody 1), first value of the cell.
Protocol: as §1
Experiment [6] addresses T2, recombinant human c-Kit. The experiment is described as follows: SPR, BIAcore T200, antibody on chip, recombinant human antigen as analyte, steady state analysis.
Protocol: as §1

Changes are numbered by the printed parent chain.

B1: anti-HER3 antibody, parental IgG1 (antibody, V domains shown)
VH: EVQLLESGGGLVQPGGSLRLSCAASGFTFSSYAMSWVRQAPGKGLEWVSVTGAVGRSTYYPDSVKGRFTISRDNSKNTLYLQMNSLRAEDTAVYYCARWGDEGFDIWGQGTLVTVSS
VL: DIQMTQSPSSLSASVGDRVTITCRASQGISNWLAWYQQKPGKAPKLLIYGASSLQSGVPSRFSGSGSGTDFTLTISSLQPEDFATYYCQQYSSFPTTFGQGTKVEIKR
notes: Parental, unmutated IgG1
As to B1, in experiment [1], the Kd (commonly the free concentration of one partner at which half of the binding sites on the other are occupied at equilibrium, for simple one-to-one binding) was determined as 1 nM.

B2: Mutated IL-17/Mutated HER3 (b) heterodimeric antibody (bispecific antibody)
heavy 1: not shown
light 1: AIQLTQSPSSLSASVGDRVTITCRPSQGINWELAWYQDKPGKAPKLLIYDASSLEQGVPSRFSGSGSGTDFTLTISSLQPEDFATYYCQQFNSYPLTFGGGTKVEIKRTVAAPSVFIFPPSDEKLKSGTASVVCLLNNFYPREAKVQWKVDNALQSGNSQESVTEQDSDDSTYSLSSTLTLSKADYEKHKVYACEVTHQGLSSPVTKSFNRGEC
heavy 2: not shown
light 2: DIQMTQSPSSLSASVGDRVTITCRASQGISNWLAWYQKKPGKAPKLLIYGASSLQSGVPSRFSGSGSGTDFTLTISSLQPEDFATYYCQQYSSFPTTFGQGTKVEIKRTVAAPSVFIFPPSDEDLKSGTASVVCLLNNFYPREAKVQWKVDNALQSGNSQESVTEQDSKDSTYSLSSTLTLSKADYEKHKVYACEVTHQGLSSPVTKSFNRGEC
notes: IgG1 bispecific
B2: the Kd came out at 4 nM in experiment [2] and 0.01 nM in experiment [3].

B3: Mutated IL-17/Mutated c-Kit heterodimeric antibody (bispecific antibody)
heavy 1: not shown
light 1: B2 light 1
heavy 2: not shown
light 2: DIQMTQSPSSLSASVGDRVTITCRASQSISSYLNWYQKKPGKAPKLLIYYTSRLQSGVPSRFSGSGSGTDFTLTISSLQPEDFATYYCQQGRRLWSFGGGTKVEIKRTVAAPSVFIFPPSDEDLKSGTASVVCLLNNFYPREAKVQWKVDNALQSGNSQESVTEQDSKDSTYSLSSTLTLSKADYEKHKVYACEVTHQGLSSPVTKSFNRGEC
notes: IgG1 bispecific
As for B3, the Kd in experiment [4] worked out at 20 nM; in experiment [3], 0.07 nM.

B4: Mutated c-Kit/Mutated HER3 (a) heterodimeric antibody (bispecific antibody)
heavy 1: not shown
light 1: B3 light 2
heavy 2: not shown
light 2: B2 light 2 with K38D, D124K, K169D
notes: IgG1 bispecific
B4: the Kd was determined as 0.4 nM in experiment [2] and 22 nM in experiment [5].

B5: anti-c-Kit antibody, parental IgG1 (antibody, V domains shown)
VH: EVQLVESGGGLVQPGGSLRLSCAASGFAFSGYYMAWVRQAPGKGLEWVANINYPGSSTYYLDSVKGRFTISRDNAKNSLYLQMNSLRAEDTAVYYCARGDYYGTTYWYFDVWGQGTTVTVSS
VL: DIQMTQSPSSLSASVGDRVTITCRASQSISSYLNWYQQKPGKAPKLLIYYTSRLQSGVPSRFSGSGSGTDFTLTISSLQPEDFATYYCQQGRRLWSFGGGTKVEIKR
notes: Parental, unmutated IgG1, VH3/Vk1, made in-house
Turning to B5, the Kd in experiment [6] is 20 nM.

The record behind these values is patent US20190382475A1 (Novartis, published 2019).
